Consider one substance from publication PMC11952320.

What all share (test): co-IP
Assay [1] has as its target human GABAA receptor β2 subunit, epilepsy-associated variant I299S (human) (UniProt P47870).
Assay [2] concerns the target human GABAA receptor β2 subunit, epilepsy-associated variant I246T (human) (UniProt P47870).
Assay [3] concerns the target human GABAA receptor β2 subunit, variant Q209F210delinsH (human) (UniProt P47870).
The target in assay [4] is human GABAA receptor β2 subunit, epilepsy-associated variant R240T (human) (UniProt P47870).

As for “human GABAA receptor α1 subunit (GABRA1)”, the percent reduction of the ratio of α1 to β2 after co-IP, against WT in assay [1] is 30%; in assay [2] it was 30%; in assay [3], 75%; in assay [4], 80%.
